For the experiment, the target named is T1, canonical HER2, extracellular region (residues 22-587) (human, UniProt P04626).
T1 construct: HER2 (ERBB2), human, extracellular region spanning residues 22-587, amplified from the complete cDNA clone BC156755 / P04626; Cloned in a modified p3XFLAG-CMV-25 vector; also called ERBB2; human epidermal growth factor receptor 2; source: HEK293F, transfected, purified from supernatant (HisTrap, Superdex200); not shown: FLAG, N-terminal, kept
Nature of the experiment: flow cytometry on cells; yeast clones displaying scFv (anti-c-myc-FITC for display) incubated with purified Flag-tagged HER2 variants at room temperature for 2 hours; anti-Flag iFluor 647. To be noted: one partner purified. On the technique in general: Flow cytometry measures light scatter and fluorescence of single cells or particles in a stream.

B1: Clone 32 (scFv displayed on yeast) (scFv, V domains shown)
VH: EVQLVESGGGLVQPGGSLRLSCAASGFTFGEYTMDWVRQAPGKGLEWVADVNPNSGGSIYNKRFKGRFTLSVDRSKNTLYLQMNSLRAEDTAVYYCARNLGPSFYFDYWGQGTLVTVSS
VL: DIQMTQSPSSLSASVGDRVTITCKASQDVSIGVAWYQQKPGKAPKLLIYSASYRYTGVPSRFSGSGSGTDFTLTISSLQPEDFATYYCQQYYIYPYTFGQGTKVEIK
notes: as the heavy-chain variable region of m4 (Pertuzumab, PDB 1S78), with the changes of clone 32 among the 14 library positions; linker: three repeats of G4S between the VH and VL; as the light-chain variable region of m4 (Pertuzumab, PDB 1S78); The methods also say the library was built 'based on the AAL160 template antibody'; source: S. cerevisiae EBY100, yeast surface display (pCTCON2)
Take B1: the binding result is “binds”.

For the origin of these results see article doi:10.1101/2023.07.21.550003 (bioRxiv, 2023).
